Consider 1 substance from article PMC7925540.

The term Kd denotes a measure of binding affinity in units of concentration. A high value points to a looser complex.

This assay concerns the target Vlp15/16 of B. miyamotoi HT31 (B. miyamotoi HT31). Put plainly: ELISA; Vlp15/16 (5 µg/ml) immobilised, increasing amounts of plasminogen (0 to 20 µM); non-linear regression, one-site specific binding model.

As for Human glu-plasminogen (natural protein), the Kd amounted to 0.354 µM.
